First the molecules themselves.
T1: human ULBP2 (UL16 binding protein 2) on transfected HEK293 cells (human, UniProt Q9BZM5 26-217)
T1 sequence: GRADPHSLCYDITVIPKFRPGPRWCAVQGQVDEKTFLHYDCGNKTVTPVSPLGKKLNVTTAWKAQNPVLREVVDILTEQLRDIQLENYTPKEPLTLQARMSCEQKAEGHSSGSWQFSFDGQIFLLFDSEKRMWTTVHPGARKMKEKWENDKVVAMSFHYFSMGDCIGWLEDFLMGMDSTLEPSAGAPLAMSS

T2: cyno PD1 expressed on CHO-K1 cells (cynomolgus monkey, UniProt Q15116 25-288 (human entry))
T2 construct: also called cyno PD1+ CHO cells
T2 chain: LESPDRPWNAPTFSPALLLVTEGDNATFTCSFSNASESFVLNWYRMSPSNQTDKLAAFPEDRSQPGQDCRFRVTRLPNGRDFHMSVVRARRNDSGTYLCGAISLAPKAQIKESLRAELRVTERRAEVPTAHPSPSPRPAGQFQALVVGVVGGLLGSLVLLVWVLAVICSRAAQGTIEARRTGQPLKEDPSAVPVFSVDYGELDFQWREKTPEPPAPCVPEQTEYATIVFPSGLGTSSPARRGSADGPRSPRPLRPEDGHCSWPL

T3: cynomolgus monkey PD1 His tag (monomeric) (cynomolgus monkey, UniProt Q15116 25-170 (human entry), limits assumed)
T3 construct: Soluble monomeric analyte; whole entry named; also called monomeric cyno PD1; not shown: His tag
T3 chain: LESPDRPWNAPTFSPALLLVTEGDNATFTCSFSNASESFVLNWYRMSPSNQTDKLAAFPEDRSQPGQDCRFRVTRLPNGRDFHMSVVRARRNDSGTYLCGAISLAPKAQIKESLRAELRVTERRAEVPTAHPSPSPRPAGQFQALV

B1: IgG1-08 (antibody, V domains shown)
VH: EVQLVESGGGLVQPGGSLRLSCAASGFTFSSYLMSWVRQAPGKGLEWVATISGGGSEKYYVDSVKGRFTISRDNAKNSLYLQMNSLRAEDTAVYYCARQLYGFDYWGQGTLVTVSS
VL: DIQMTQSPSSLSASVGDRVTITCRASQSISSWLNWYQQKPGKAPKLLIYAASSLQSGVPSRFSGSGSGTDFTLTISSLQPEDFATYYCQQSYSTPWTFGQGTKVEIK
notes: Designer; human IgG1null + Ckappa; also called Antibody IgG1-08; MAB08
B2: IgG1-05 (antibody, V domains shown)
VH: B1 VH with L100V, G102Y
VL: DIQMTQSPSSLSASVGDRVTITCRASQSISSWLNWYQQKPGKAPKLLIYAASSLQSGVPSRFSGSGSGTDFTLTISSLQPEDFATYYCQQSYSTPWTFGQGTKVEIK
notes: Designer; human IgG1null + Ckappa; also called Antibody IgG1-05
B3: IgG1-06D02 (antibody, V domains shown)
VH: B1 VH with K58T
VL: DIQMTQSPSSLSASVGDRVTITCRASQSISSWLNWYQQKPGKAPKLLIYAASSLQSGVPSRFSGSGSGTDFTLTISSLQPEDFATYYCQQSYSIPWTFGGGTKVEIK
notes: Library-derived; human IgG1null + Ckappa; also called Clone 06D02

Numbering of substitutions follows the chain as printed.

The IC50 is the concentration at which inhibition is half-maximal. One may read the EC50 as the midpoint of the concentration-response curve. The Kd is a measure of binding affinity in units of concentration. One may read the koff as the rate constant with which the complex falls apart. Broadly, the kon is a measure of how fast the partners come together.

T5 sequence (P35968 20-1356 limits assumed): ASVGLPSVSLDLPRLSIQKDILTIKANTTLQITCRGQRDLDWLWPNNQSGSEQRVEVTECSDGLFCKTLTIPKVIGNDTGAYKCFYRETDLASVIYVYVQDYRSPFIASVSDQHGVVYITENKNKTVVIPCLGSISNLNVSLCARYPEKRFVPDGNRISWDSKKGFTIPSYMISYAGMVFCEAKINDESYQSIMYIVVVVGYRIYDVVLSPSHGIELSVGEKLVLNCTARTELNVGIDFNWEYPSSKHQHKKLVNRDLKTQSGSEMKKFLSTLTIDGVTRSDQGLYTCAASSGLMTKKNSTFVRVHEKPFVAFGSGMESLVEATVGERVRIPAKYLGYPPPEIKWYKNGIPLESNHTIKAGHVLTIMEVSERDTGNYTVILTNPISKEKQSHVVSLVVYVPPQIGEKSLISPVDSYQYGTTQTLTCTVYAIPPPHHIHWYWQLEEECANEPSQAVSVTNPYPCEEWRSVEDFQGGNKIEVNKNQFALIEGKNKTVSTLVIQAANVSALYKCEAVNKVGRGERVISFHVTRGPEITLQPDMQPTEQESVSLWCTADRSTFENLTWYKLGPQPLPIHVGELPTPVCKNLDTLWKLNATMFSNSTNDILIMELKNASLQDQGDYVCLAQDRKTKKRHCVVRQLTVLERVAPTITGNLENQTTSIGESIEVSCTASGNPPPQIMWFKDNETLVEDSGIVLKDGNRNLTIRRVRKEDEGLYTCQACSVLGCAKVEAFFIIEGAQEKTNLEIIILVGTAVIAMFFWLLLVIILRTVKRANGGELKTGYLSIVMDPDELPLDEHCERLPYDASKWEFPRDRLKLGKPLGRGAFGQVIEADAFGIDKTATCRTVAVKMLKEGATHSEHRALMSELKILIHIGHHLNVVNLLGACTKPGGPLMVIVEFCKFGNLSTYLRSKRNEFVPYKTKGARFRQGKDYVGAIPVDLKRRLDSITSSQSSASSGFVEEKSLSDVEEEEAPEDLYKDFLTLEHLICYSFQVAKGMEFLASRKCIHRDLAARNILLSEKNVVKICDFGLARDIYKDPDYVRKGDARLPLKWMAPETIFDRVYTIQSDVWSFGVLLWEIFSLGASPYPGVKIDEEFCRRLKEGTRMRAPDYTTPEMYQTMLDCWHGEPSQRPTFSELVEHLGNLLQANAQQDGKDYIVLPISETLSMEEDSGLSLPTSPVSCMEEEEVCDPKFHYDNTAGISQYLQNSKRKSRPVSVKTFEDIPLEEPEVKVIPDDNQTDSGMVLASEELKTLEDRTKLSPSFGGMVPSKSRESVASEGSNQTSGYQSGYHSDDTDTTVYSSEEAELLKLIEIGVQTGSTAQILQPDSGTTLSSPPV
T6 sequence (Q15116 25-170 limits assumed): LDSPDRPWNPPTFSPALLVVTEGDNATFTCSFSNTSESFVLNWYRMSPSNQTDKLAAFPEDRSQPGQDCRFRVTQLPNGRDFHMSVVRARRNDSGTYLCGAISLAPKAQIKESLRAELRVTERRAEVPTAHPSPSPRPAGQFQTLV

The target in the first experiment is T1, human ULBP2 (UL16 binding protein 2) on …. Briefly: cell microarray re-array, transfected HEK293. Here is the method: (§1) Antibody binding was detected using AF647 fluorescent secondary anti-human IgG1 antibody. Primary hits (duplicate spots) were identified by analysing fluorescence (AF647 and ZsGreen1) on ImageQuant. Vectors encoding all hits were sequenced to confirm their correct identities. […] Slides were analysed as above. Flow cytometry confirmation screen: Expression vectors encoding ZsGreen1 only, or ZsGreen1 and PD1, FZDS, KDR or ULBP2, were transfected into human HEK293 cells. Each live transfectant was incubated with […] of each of the test antibodies and the Isotype control antibody. Cells were washed, and incubated with the same AF647 anti-human IgG Fc detection antibody as used in the cell microarray screens. Cells were again washed, and analysed by flow cytometry using an Accuri flow cytometer (BD). A 7AAD live/dead dye was used to exclude dead cells, and ZsGreen1-positive cells (i.e. transfected cells) were selected for analyses.
As for B1, the binding result is reported as “no binding (tested: 5 µg/ml)”.
Same read-out and setting: next, B2: “no binding (tested: 5 µg/ml)”; B3: “no binding (tested: 5 µg/ml)”.

In the next experiment the target is T4, human FZD5 (frizzled class receptor 5) on transfected HEK293 cells (human, UniProt Q13467 27-585).
T4 construct: also called FZDS; FZ5
The experiment in a line: cell microarray re-array, transfected HEK293. Here is the method: as §1
As for B1, the binding result is “no binding (tested: 5 µg/ml)”.
On the same count and under the same terms, next, B2: “no binding (tested: 5 µg/ml)”; B3: “no binding (tested: 5 µg/ml)”.

The next experiment concerns the target T5, human KDR (VEGFR2) on cells (human, UniProt P35968 20-1356).
T5 construct: Transfected HEK293 cells (arrays, flow cytometry) and human VEGFR2 reporter cells
Briefly: cell microarray re-array, transfected HEK293. Here is the method: as §1
Turning to B1, the binding result is on record as “no binding (tested: 5 µg/ml)”.
On the same count and under the same terms, with B2 the entry was “no binding (tested: 5 µg/ml)”; with B3, “no binding (tested: 5 µg/ml)”.

A further experiment addresses T6, biotinylated human PD1-His/AviTag (human, UniProt Q15116 25-170, limits assumed, biotinylated).
T6 construct: Alphascreen antigen; whole entry named; also called biotinylated monomeric human PD1; not shown: His/AviTag
The experiment in a line: Alphascreen competition vs IgG1-Mab005 (humanized). Here is the method: The AlphaScreen assay (Perkin Elmer) was performed in a 25 μl final volume in 384-well white microtiter plates (Greiner). The reaction buffer contained 1×PBS pH 7.3 (Oxoid, Cat. nr. BRO014G) and 0.05% (v/v) Tween® 20 (Sigma, Cat. nr. P9416). Purified IgG samples were titrated in three fold serial dilutions starting at 500 nM final concentration and incubated with biotinylated human PD1-His/AviTag at 0.6 nM final concentration for 20 minutes at room temperature. […] Followed by addition of the Streptavidin Donor beads at 20 μg/ml (final concentration) and incubation for 30 minutes at room temperature. The emission of light was measured in the EnVision multilabel plate reader (Perkin Elmer) and analysed using the EnVision manager software. Values were reported as Counts Per Second (CPS) and corrected for crosstalk.
(In general: In Alpha technology, singlet oxygen from a donor bead excites a nearby acceptor bead.)
B1: the IC50 was 2.36 nM.
Same read-out and setting: next, B2: 1.66 nM.
The same measure, in the same setting: with B3 the figure was 2.63 nM.

In a further experiment the target is T2, cyno PD1 expressed on CHO-K1 cells. Briefly: flow cytometry, PD1 CHO-K1 cells. Here is the method: (§2) Purified IgGs were tested in FACs for binding to human and cyno PD1 expressed on CHO-K1 stable cell lines and CHO-K1 wild-type cells. […] Binding of IgGs was detected with a mouse anti-human IgG conjugated to FITC. Results were analyzed by examining the Mean Fluorescence Intensity (MFI) of 10000 cells per sample in the BL-1 channel detector of a flow cytometer (Attune™ NxT Acoustic Focusing Cytometer, Invitrogen/ThermoFisher Scientific).
(§3) Antibodies to PD1 were analysed for concentration-dependent binding at the cell surface via flow cytometry. Initial analyses were performed on CHO cells stably-transfected with human or cyno PD1.
In the case of B1, the EC50 was 2.03 nM.
For B2, the EC50 stood at 2.52 nM.
B3 had an EC50 of 1.56 nM.

The target in the next experiment is T7, human PD1 expressed on cells (human, UniProt Q15116 25-288).
T7 construct: also called human PD1+ CHO cells; PD1-transfected HEK293 cells
T7 sequence (Q15116 25-288 limits assumed): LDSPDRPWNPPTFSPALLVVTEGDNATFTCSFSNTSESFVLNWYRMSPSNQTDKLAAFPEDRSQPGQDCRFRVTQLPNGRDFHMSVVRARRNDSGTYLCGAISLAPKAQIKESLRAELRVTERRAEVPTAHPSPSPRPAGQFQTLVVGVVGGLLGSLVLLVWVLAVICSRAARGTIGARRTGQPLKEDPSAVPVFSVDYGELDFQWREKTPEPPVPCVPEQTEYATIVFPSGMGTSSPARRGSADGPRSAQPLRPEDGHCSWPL
Briefly: flow cytometry, PD1 CHO-K1 cells. Here is the method: as §2, §3
A general note: Flow cytometry measures light scatter and fluorescence of single cells or particles in a stream.
Regarding B1, the response was half-maximal at 1.55 nM (EC50).
On the same count and under the same terms, with B2 the figure was 1.66 nM; with B3, 1.78 nM.

The target of another experiment is T7, human PD1 expressed on cells. Briefly: cell-based or functional assay.
On to B1, for which the “EC50 (ng/ml), IgG1null blockade of human PD1/PD-L1” value turned out to be 127 ng/mL.
On the same count and under the same terms, next, B2: 156 ng/mL; B3: 224 ng/mL.

The next experiment deals with T8, human PD1 His tagged (monomeric) (human, UniProt Q15116 25-170, limits assumed).
T8 construct: Soluble monomeric analyte; whole entry named; also called monomeric human PD1; not shown: His tag
T8 sequence (Q15116 25-170 limits assumed): as the sequence (Q15116 25-170 limits assumed) above
The experiment in a line: SPR (Biacore), IgG captured, monomeric PD1-His analyte. Here is the method: (§4) Affinity (KD) of purified IgGs was determined via SPR with antigen in-solution on a Biacore 3000 (GE). A mouse anti-human antibody (CH1 specific) was immobilized on a CM5 Sensor Chip to a level of 2000 RU in acetate buffer at pH 4.5 using amine coupling following the Wizard instructions for two channels. One channel was used for background signal correction. The standard running buffer HBS-EP pH 7.4 was used. Regeneration was performed with a single injection of 10 μl of 10 mM Glycine at pH 1.5 at 20 μl/minute. IgG samples were injected for 2 minutes at 50 nM at 30 μl/min followed by and off-rate of 60 seconds. […] The obtained sensorgrams were analysed using the Biacore 3000 evaluation (BIAevaluation) software. The KD was calculated by simultaneous fitting of the association and dissociation phases to a 1:1 Langmuir binding model.
(§5) Biacore analyses of binding affinity was performed for all IgGs to solution-phase, monomeric human and cyno PD1 proteins.
In general terms: Surface plasmon resonance follows binding to a sensor surface in real time, without labels.
On to B1, for which the Kd was 1.47 nM, the koff turned out to be 0.00028 s⁻¹ and the kon stood at 190000 M⁻¹ s⁻¹.
The matching figures for B2: 1.91 nM, 0.00029 s⁻¹ and 150000 M⁻¹ s⁻¹.
Consider B3, for which the affinity, expressed as Kd, was 1.3 nM; the koff came out at 0.00025 s⁻¹; the kon amounted to 200000 M⁻¹ s⁻¹.

The next experiment addresses T3, cynomolgus monkey PD1 His tag …. The description is as above. Here is the method: as §4, §5
On to B1, for which binding was put at a Kd of 3.4 nM, the koff came to 0.00052 s⁻¹ and the association rate constant (kon) was 150000 M⁻¹ s⁻¹.
On the same counts, the results for B2 are 2.8 nM, 0.00033 s⁻¹ and 120000 M⁻¹ s⁻¹.
The matching figures for B3: 4.9 nM, 0.00062 s⁻¹ and 130000 M⁻¹ s⁻¹.
